Data as given in patent US20220259268A1 (NATIONAL UNIVERSITY CORPORATION TOKAI NATIONAL HIGHER …, published 2022).

Target: the molecule itself
Experiment: dynamic light scattering of liposomes carrying Nhead-SNAP on the surface layer

B1: Nhead-SNAP fusion peptide (AtaA59-325-GCN4pII-SNAP-His) (other)
chain: not shown
notes: also called E. coli recombinant Nhead-SNAP
B1: no binding.
